Assays:
Assay in all cases: cell-based or functional assay
[1] = molecular target: spike protein of SARS-CoV-2 strain P.1 (SARS-CoV-2) (UniProt P0DTC2)
[2] = molecular target: spike protein of SARS-CoV-2 strain Victoria (SARS-CoV-2/human/AUS/VIC01/2020) (SARS-CoV-2) (UniProt P0DTC2)
[3] = molecular target: spike protein of SARS-CoV-2 strain B.1.1.7 (SARS-CoV-2) (UniProt P0DTC2)
[4] = molecular target: spike protein of SARS-CoV-2 strain B.1.351 (SARS-CoV-2) (UniProt P0DTC2)
[5] = molecular target: SARS-CoV-2 spike protein on authentic virus, strain B.1.1.7 (SARS-CoV-2) (UniProt P0DTC2)
[6] = molecular target: SARS-CoV-2 spike protein on authentic virus, strain SARS-CoV-2/human/AUS/VIC01/2020 (Victoria) (SARS-CoV-2) (UniProt P0DTC2)

| Substance | FRNT50 ratio P.1/Victoria [1] | IC50 (FRNT neutralisation) [2] [mg/L] | FRNT50 ratio B.1.1.7/Victoria [3] | IC50 (FRNT neutralisation) [3] [mg/L] | FRNT50 ratio B.1.351/Victoria [4] | IC50 (FRNT neutralisation) [4] [mg/L] | IC50 (ug/ml), FRNT [5] [µg/mL] | IC50 (FRNT, live virus neutralisation) [2] [mg/L] | IC50 (ug/ml), FRNT [6] [µg/mL] |
| --- | --- | --- | --- | --- | --- | --- | --- | --- | --- |
| ADG20 (antibody) | 2.2 | 0.004 | 1.4 | 0.006 | 2.5 | 0.01 | – | – | – |
| AZD1061 (antibody) | – | 0.013 | – | 0.012 | – | 0.014 | 0.012 | 0.013 | 0.013 |
| AZD8895 (antibody) | – | 0.005 | – | 0.011 | – | 0.046 | 0.011 | 0.005 | 0.005 |
| LY-CoV16 (antibody) | > 291 | 0.034 | 1.5 | 3.23 | > 291 | > 10 | – | – | – |
| S309 (antibody) | 1.9 | 0.04 | 1.5 | 0.078 | 2 | 0.082 | – | – | – |
| LY-CoV555 (antibody) | > 1550 | 0.006 | 1.5 | 0.009 | > 1550 | > 10 | – | – | – |
| ADG10 (antibody) | 0.5 | 0.006 | 1.8 | 0.01 | 1.9 | 0.011 | – | – | – |
| ADG30 (antibody) | 0.3 | 0.007 | 2.5 | 0.016 | 4.4 | 0.029 | – | – | – |
| REGN10933 (antibody) | – | 0.004 | – | 0.014 | – | 3.28 | 0.014 | 0.004 | 0.004 |
| REGN10987 (antibody) | – | 0.032 | – | 0.028 | – | 0.007 | 0.028 | 0.032 | 0.032 |

Reference: patent US20240043507A1
